Test results from patent US20240343800A1 (Merck KGaA, published 2024).

What was measured:
human ROR1 (on cells) [1] = biological target: T1, human ROR1 (on cells) (human, UniProt Q01973 30-937); test: cell-based or functional assay
[2] = biological target: T2, cynomolgus CD3 (on cynomolgus pan-T cells) (cynomolgus, UniProt Q95LI5 22-198); test: flow cytometry, cynomolgus pan-T cells
T2 construct: whole, on cells
Procedure: (§1) After 15-minutes of incubation at room temperature, the cells were washed twice with 200 μL of PBS by centrifugation at 500×g for 5 minutes at room temperature and resuspended in […] of 10% goat serum in BD staining buffer (BD Biosciences, Cat No: 554657). […] The plates were then covered with foil to avoid direct light and incubated for 60 minutes at 4° C. […] After incubating for 30 minutes at 4° C., the cells were washed twice with 200 μL of PBS by centrifugation at 500×g for 5 minutes at room temperature and resuspended into 100 μL of fixation buffer (BioLegend, Cat No: 420801). The samples were then analyzed on a flow cytometer for binding signal using FlowJo software. ROR and CD3 binding EC₅₀s (concentration vs mean fluorescence intensity (MFI)) for reference molecules and test bispecific TCEs were obtained using 4-parameter non-linear regression curve fitting in GraphPad Prism.

[3] = biological target: T3, mouse ROR1 (on 4T1 cells engineered to overexpress it) (mouse, UniProt Q9Z139 30-937); test: flow cytometry, 4T1 cells overexpressing mouse ROR1
T3 construct: whole, on cells; also called muROR1; mROR1
Procedure: as §1

[4] = biological target: T3, mouse ROR1 (on 4T1 cells engineered to …); test: flow cytometry; reference: human ROR1 on MDA-MB-231 cells
human ROR1 (on cells) [5] = biological target: T1, human ROR1 (on cells); test: cell-based or functional assay; remark: listed apart in the source
[6] = biological target: T4, human CD3 (on Jurkat T cells or human CD8+ T cells) (human, UniProt P07766 23-207; P09693 23-182; P04234 22-171; P20963 22-164); test: flow cytometry, human CD8+ T cells
T4 construct: Entries are printed with signal peptides; also called huCD3; CD3ε
Procedure: as §1

human ROR1 (on cells) [7] = biological target: T1, human ROR1 (on cells); test: cell-based or functional assay; remark: listed apart in the source
human ROR1 (on cells) [8] = biological target: T1, human ROR1 (on cells); test: flow cytometry, ROR1+ MDA-MB-231 cells
Procedure: as §1

human ROR1 (on cells) [9] = biological target: T1, human ROR1 (on cells); test: cell-based or functional assay; remark: listed apart in the source

T2 sequence (Q95LI5 22-198): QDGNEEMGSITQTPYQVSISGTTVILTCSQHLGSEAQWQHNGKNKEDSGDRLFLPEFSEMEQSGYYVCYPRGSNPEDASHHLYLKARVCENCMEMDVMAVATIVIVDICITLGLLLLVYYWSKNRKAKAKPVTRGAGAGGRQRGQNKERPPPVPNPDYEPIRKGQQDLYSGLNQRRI
T4 sequence (P07766 23-207 limits assumed, chain 1 of 4): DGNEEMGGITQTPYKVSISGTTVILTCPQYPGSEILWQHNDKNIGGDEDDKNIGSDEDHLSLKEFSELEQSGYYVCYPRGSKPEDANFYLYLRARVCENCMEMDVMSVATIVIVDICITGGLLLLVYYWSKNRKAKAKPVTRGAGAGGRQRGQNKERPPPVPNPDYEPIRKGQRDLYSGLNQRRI
T4 sequence (P09693 23-182 limits assumed, chain 2 of 4): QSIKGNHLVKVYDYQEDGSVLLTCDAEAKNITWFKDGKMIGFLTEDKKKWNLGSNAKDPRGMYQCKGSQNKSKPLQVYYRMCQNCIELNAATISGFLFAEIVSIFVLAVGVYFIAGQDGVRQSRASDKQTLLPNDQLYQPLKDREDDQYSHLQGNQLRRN
T4 sequence (P04234 22-171 limits assumed, chain 3 of 4): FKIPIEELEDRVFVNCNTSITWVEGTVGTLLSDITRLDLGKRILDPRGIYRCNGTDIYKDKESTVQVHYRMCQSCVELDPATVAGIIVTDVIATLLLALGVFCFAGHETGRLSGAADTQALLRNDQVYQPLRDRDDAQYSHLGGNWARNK
T4 sequence (P20963 22-164 limits assumed, chain 4 of 4): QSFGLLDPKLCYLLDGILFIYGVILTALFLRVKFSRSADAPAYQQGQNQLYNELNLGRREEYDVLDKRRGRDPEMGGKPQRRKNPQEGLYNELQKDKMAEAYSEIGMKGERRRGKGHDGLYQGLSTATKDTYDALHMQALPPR

B1: 82H02 TCE #4 (sequence optimized 82H02 bispecific TCE in Format 1A, low ROR1 / low CD3 affinity) (bispecific antibody)
heavy 1: EVQLVESGGGLVQPGGSLKLSCAASGFTFNTYAMNWVRQASGKGLEWVGRIRSKYNNYATYYADSVKGRFTISRDDSKNTLYLQMNSLKTEDTAVYYCVRHGNFGNSYVSWFAYWGQGTMVTVSSASTKGPSVFPLAPSSKSTSGGTAALGCLVKDYFPEPVTVSWNSGALTSGVHTFPAVLQSSGLYSLSSVVTVPSSSLGTQTYICNVNHKPSNTKVDKKVEPKSCDKTHTCPPCPAPEAAGGPSVFLFPPKPKDTLMISRTPEVTCVVVDVSHEDPEVKFNWYVDGVEVHNAKTKPREEQYNSTYRVVSVLTVLHQDWLNGKEYKCKVSNKALGAPIEKTISKAKGQPFRPEVHLLPPSREEMTKNQVSLTCLARGFYPKDIAVEWESNGQPENNYKTTPSRQEPSQGTTTFAVTSKLTVDKSRWQQGNVFSCSVMHEALHNHYTQKTISLSPGK
heavy 2: EIVLTQSPATLSLSPGERATLSCRASQSVSSYLAWYQQKPGQAPRLLIYDASNRATGIPARFSGSGSGTDFTLTISSLEPEDFAVYYCQQRSNWPPFTFGQGTRLEIKGGGGSGGGGSGGGGSGGGGSEVQLLESGGGLVQPGGSLRLSCAASGFTFTSYAMSWVRQAPGKGLEWVSTISGSGGGTYYTDSVKGRFTISRDNSKNTLYLQMNSLRAEDTAVYYCAQGSSIFDYWGQGTLVTVSSEPKSSDKTHTCPPCPAPEAAGGPSVFLFPPKPKDTLMISRTPEVTCVVVDVSHEDPEVKFNWYVDGVEVHNAKTKPREEQYNSTYRVVSVLTVLHQDWLNGKEYKCKVSNKALGAPIEKTISKAKGQPREPQVYTLPPPSEELALNELVTLTCLVKGFYPSDIAVEWLQGSQELPREKYLTWAPVLDSDGSFFLYSILRVAAEDWKKGDTFSCSVMHEALHNHYTQKSLDRSPGKGGGGSGGGGSGGGGSGGGGSEIVLTQSPATLSLSPGERATLSCRASQSVSSYLAWYQQKPGQAPRLLIYDASNRATGIPARFSGSGSGTDFTLTISSLEPEDFAVYYCQQRSNWPPFTFGQGTRLEIKGGGGSGGGGSGGGGSGGGGSEVQLLESGGGLVQPGGSLRLSCAASGFTFTSYAMSWVRQAPGKGLEWVSTISGSGGGTYYTDSVKGRFTISRDNSKNTLYLQMNSLRAEDTAVYYCAQGSSIFDYWGQGTLVTVSS
light: QTVVTQEPSLTVSPGGTVTLTCASSTGAVTTSNYANWVQQKPGQAPRALIGGTNKRAPGTPARFSGSLLGGKAALTLSGVQPEDEAEYYCALWYSNLWVFGGGTKLTVLGQPKAAPSVTLFPPSSEELQANKATLVCLISDFYPGAVTVAWKADSSPVKAGVETTTPSKQSNNKYAASSYLSLTPEQWKSHRSYSCQVTHEGSTVEKTVAPTECS
notes: also called 82H02 #4; 82H02 VL1.06x1F3.5-VH1.01-VL1.01
IFNγ release AUC, PBMCs: MDA-MB-231-0.2 (human ROR1 (on cells) [1]): 1.09e+06
IFNγ release AUC, PBMCs: MDA-MB-231-0.4 (human ROR1 (on cells) [1]): 1.42e+06
IFNγ release AUC, PBMCs: MDA-MB-231-0.6 (human ROR1 (on cells) [1]): 8.23e+06
IFNγ release AUC, PBMCs: MDA-MB-231-1.3 (human ROR1 (on cells) [1]): 4.11e+06
IFNγ release AUC, PBMCs: MDA-MB-231-7 (human ROR1 (on cells) [1]): 4.14e+06
IFNγ release EC50, PBMCs: MDA-MB-231-0.2 (human ROR1 (on cells) [1]): 0.28 nM
IFNγ release EC50, PBMCs: MDA-MB-231-0.4 (human ROR1 (on cells) [1]): 0.16 nM
IFNγ release EC50, PBMCs: MDA-MB-231-0.6 (human ROR1 (on cells) [1]): 0.121 nM
IFNγ release EC50, PBMCs: MDA-MB-231-1.3 (human ROR1 (on cells) [1]): 0.0351 nM
IFNγ release EC50, PBMCs: MDA-MB-231-7 (human ROR1 (on cells) [1]): 0.0309 nM
IFNγ release Emax, PBMCs: MDA-MB-231-0.2 (human ROR1 (on cells) [1]): 1730%
IFNγ release Emax, PBMCs: MDA-MB-231-0.4 (human ROR1 (on cells) [1]): 1840%
IFNγ release Emax, PBMCs: MDA-MB-231-0.6 (human ROR1 (on cells) [1]): 2780%
IFNγ release Emax, PBMCs: MDA-MB-231-1.3 (human ROR1 (on cells) [1]): 4560%
IFNγ release Emax, PBMCs: MDA-MB-231-7 (human ROR1 (on cells) [1]): 4480%
EC50 [2]: 27.7 nM
EC50 [3]: 496 nM
fold difference in apparent ROR1 binding affinity between human and mouse ROR1 [4]: ~6.5 fold
IFNγ release EC50, PBMCs: MDA-MB-231 (human ROR1 (on cells) [5]): 509 nM
Max IFNγ, PBMCs: MDA-MB-231 (human ROR1 (on cells) [5]): 764 pg/mL
EC50 [6]: 20.4 nM
TDCC EC50, PBMCs: MDA-MB-231 (human ROR1 (on cells) [7]): 168 nM
EC50 (human ROR1 (on cells) [8]): 76.5 nM
TDCC AUC, PBMCs: MDA-MB-231-0.2 (human ROR1 (on cells) [9]): 25900
TDCC AUC, PBMCs: MDA-MB-231-0.4 (human ROR1 (on cells) [9]): 41900
TDCC AUC, PBMCs: MDA-MB-231-0.6 (human ROR1 (on cells) [9]): 46300
TDCC AUC, PBMCs: MDA-MB-231-1.3 (human ROR1 (on cells) [9]): 58900
TDCC AUC, PBMCs: MDA-MB-231-7 (human ROR1 (on cells) [9]): 68300
TDCC EC50, PBMCs: MDA-MB-231-0.2 (human ROR1 (on cells) [9]): 0.0223 nM
TDCC EC50, PBMCs: MDA-MB-231-0.4 (human ROR1 (on cells) [9]): 0.0196 nM
TDCC EC50, PBMCs: MDA-MB-231-0.6 (human ROR1 (on cells) [9]): 0.0152 nM
TDCC EC50, PBMCs: MDA-MB-231-1.3 (human ROR1 (on cells) [9]): 0.0112 nM
TDCC EC50, PBMCs: MDA-MB-231-7 (human ROR1 (on cells) [9]): 0.00653 nM
TDCC Emax, PBMCs: MDA-MB-231-0.2 (human ROR1 (on cells) [9]): 27.4%
TDCC Emax, PBMCs: MDA-MB-231-0.4 (human ROR1 (on cells) [9]): 45%
TDCC Emax, PBMCs: MDA-MB-231-0.6 (human ROR1 (on cells) [9]): 51.5%
TDCC Emax, PBMCs: MDA-MB-231-1.3 (human ROR1 (on cells) [9]): 60.4%
TDCC Emax, PBMCs: MDA-MB-231-7 (human ROR1 (on cells) [9]): 70.3%
